Kd data for 15 sequences are collected here from the Immune Epitope Database (IEDB).

One assay deals with HLA-B*44:03. Briefly: IEDB peptide-MHC binding, purified MHC/competitive/radioactivity; filed as Kd, often an IC50 or EC50 that approximates it; ≥ and ≤ were set here for values at or beyond the usual limits of such assays.
The target in a further assay is HLA-B*44:02. The description is as above.
For the next assay, the target named is HLA-A*33:01. Described as above. The conditions noted are these: source organism: Vaccinia virus WR.
In the next assay the target is HLA-A*03:01. Described as above. The conditions noted are these: source organism: Vaccinia virus WR.
The next assay has as its target HLA-A*29:02. The assay is described as above.
The target of another assay is HLA-A*11:01. Described as above. The following applies: source organism: Vaccinia virus WR.
The target in a further assay is HLA-A*31:01. The description is as above. The following applies: source organism: Vaccinia virus WR.
Another assay deals with HLA-A*68:01. The description is as above. The following applies: source organism: Vaccinia virus WR.
The next assay has as its target HLA-A*26:01. The assay is described as above.
For the next assay, the target named is HLA-A*23:01. The assay is described as above.
A further assay concerns the target HLA-A*24:02. The description is as above.
A further assay deals with HLA-A*01:01. The description is as above.
For the next assay, the target named is HLA-A*30:02. The description is as above.
A further assay deals with HLA-B*46:01. Briefly: IEDB peptide-MHC binding, purified MHC/direct/fluorescence; filed as Kd, often an IC50 or EC50 that approximates it; ≥ and ≤ were set here for values at or beyond the usual limits of such assays. The conditions noted are these: source organism: West Nile virus.
Setting [1] is: source organism: Dengue virus 4 Philippines/H241/1956.
[2] abbreviates: source organism: SARS coronavirus Tor2.
Where [3] appears, read: source organism: Dengue virus 3 Martinique/1243/1999.
Where [4] appears, read: source organism: Dengue virus 2 Jamaica/1409/1983.
Setting [5] is: source organism: Lassa virus GA391.
Setting [6] is: source organism: Lymphocytic choriomeningitis virus (strain Armstrong).

In general, Kd refers to the equilibrium constant for the complex coming apart.

For the sequence AIAVASGLLW, the figures for the Kd in the assay with HLA-B*44:03 (setting [1]) and with HLA-B*44:02 (setting [1]) were 908 nM and 8800 nM, respectively.

Consider ALEVLMSPCR, for which the Kd with HLA-A*33:01 was 254 nM; with HLA-A*03:01, 328 nM; with HLA-A*29:02 (source organism: Vaccinia virus WR) it was no less than 38500 nM; in the assay with HLA-A*11:01 it was 6330 nM; with HLA-A*31:01, 42.4 nM; in the assay with HLA-A*68:01, 465 nM.

For AMGKPVPYCY, the Kd with HLA-A*26:01 (setting [2]) was no less than 49400 nM; with HLA-A*23:01 (setting [2]) it was no less than 70000 nM; with HLA-A*24:02 (setting [2]), no less than 70300 nM; with HLA-A*01:01 (setting [2]), 1990 nM; with HLA-A*29:02 (setting [2]), 89.5 nM; in the assay with HLA-A*30:02 (setting [2]), 1.1 nM.

Consider AMQKESDDY, for which the Kd was no less than 65300 nM with HLA-A*26:01 (setting [2]); no less than 77800 nM with HLA-A*23:01 (setting [2]); no less than 77600 nM with HLA-A*24:02 (setting [2]); 2740 nM with HLA-A*01:01 (setting [2]); 15500 nM with HLA-A*29:02 (setting [2]); 126 nM with HLA-A*30:02 (setting [2]).

Consider DTSNPKTPKY, for which the Kd is 1260 nM with HLA-A*26:01 (setting [2]); no less than 70000 nM with HLA-A*23:01 (setting [2]); no less than 70300 nM with HLA-A*24:02 (setting [2]); 194 nM in the assay with HLA-A*01:01 (setting [2]); 367 nM with HLA-A*29:02 (setting [2]); 48.9 nM with HLA-A*30:02 (setting [2]).

With EEHNSTWHY, the equilibrium dissociation constant (Kd) with HLA-B*44:03 (setting [3]) amounted to 68.1 nM; in the assay with HLA-B*44:02 (setting [3]), 15.3 nM.

For EENVEVEIW, the Kd in the assay with HLA-B*44:03 (setting [4]) stood at 39.1 nM; in the assay with HLA-B*44:02 (setting [4]), 45.1 nM.

For EGNETPGGY, the Kd is no less than 77900 nM with HLA-A*26:01 (setting [5]); 174 nM in the assay with HLA-A*23:01 (setting [5]); 1210 nM with HLA-A*24:02 (setting [5]); no less than 20900 nM in the assay with HLA-A*01:01 (setting [5]); 18600 nM in the assay with HLA-A*29:02 (setting [5]); no less than 76900 nM in the assay with HLA-A*30:02 (setting [5]).

Consider ELSPRWYFY, for which the Kd with HLA-A*26:01 (setting [2]) is 15.7 nM; with HLA-A*23:01 (setting [2]) it was 10600 nM; with HLA-A*24:02 (setting [2]), 13200 nM; with HLA-A*01:01 (setting [2]), no less than 35000 nM; with HLA-A*29:02 (setting [2]), 70.3 nM; in the assay with HLA-A*30:02 (setting [2]), 790 nM.

Take FTSCELYHY: the Kd with HLA-A*26:01 (setting [2]) is 811 nM; in the assay with HLA-A*23:01 (setting [2]) it was no less than 38100 nM; with HLA-A*24:02 (setting [2]), no less than 35800 nM; in the assay with HLA-A*01:01 (setting [2]) it was 1.73 nM; in the assay with HLA-A*29:02 (setting [2]) it was 3.57 nM; with HLA-A*30:02 (setting [2]), 365 nM.

As to FYAYLRKHF, the Kd is no less than 77900 nM with HLA-A*26:01 (setting [2]); no less than 23900 nM in the assay with HLA-A*23:01 (setting [2]); no less than 31800 nM in the assay with HLA-A*24:02 (setting [2]); no less than 78100 nM with HLA-A*01:01 (setting [2]); no less than 46000 nM with HLA-A*29:02 (setting [2]); no less than 125000 nM with HLA-A*30:02 (setting [2]).

The sequence GVIMPNGSY registered a Kd in the assay with HLA-B*46:01 of 1990 nM.

As for ICISLSNSF, the Kd with HLA-A*26:01 (setting [6]) is no less than 77900 nM; with HLA-A*23:01 (setting [6]) it was no less than 77700 nM; with HLA-A*24:02 (setting [6]), no less than 77500 nM; in the assay with HLA-A*01:01 (setting [6]) it was no less than 21400 nM; in the assay with HLA-A*29:02 (setting [6]), no less than 78900 nM; with HLA-A*30:02 (setting [6]) it was no less than 76900 nM.

In the case of IDATSTGNY, the Kd with HLA-A*26:01 (setting [2]) was 1050 nM; with HLA-A*23:01 (setting [2]), no less than 77800 nM; with HLA-A*24:02 (setting [2]), no less than 73800 nM; with HLA-A*01:01 (setting [2]), 3720 nM; in the assay with HLA-A*29:02 (setting [2]) it was 447 nM; in the assay with HLA-A*30:02 (setting [2]), 8590 nM.

Regarding ITLVYKVYY, the Kd was 1640 nM in the assay with HLA-A*26:01 (setting [2]); no less than 57700 nM in the assay with HLA-A*23:01 (setting [2]); no less than 77600 nM in the assay with HLA-A*24:02 (setting [2]); 44.9 nM with HLA-A*01:01 (setting [2]); 1.64 nM with HLA-A*29:02 (setting [2]); 5.19 nM with HLA-A*30:02 (setting [2]).
